Assay results taken from the supplement of paper PMC12764529.
± gives the half width of the 95% confidence interval.

Key:
[1] = folding stability dG unfold (combined trypsin and chymotrypsin); higher = more stable
In short: (§1)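 Unfolding free energy was derived, per protease or combined, by relating Bayesian-fitted K50 values from sequencing counts to a sequence-predicted unfolded-state K50 and a shared folded-state K50. The underlying digests exposed cysteine-free mini-proteins under 80 residues, in a PA-tagged cDNA display construct, to trypsin and chymotrypsin at 11 threefold-diluted concentrations and to a no-protease condition. A filter kept only designs with AlphaFold2 dimer inter-PAE above 15.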

[2] = folding stability dG unfold from trypsin proteolysis; higher = more stable
In short: as §1

[3] = folding stability dG unfold from chymotrypsin proteolysis; higher = more stable
In short: as §1

Sequence | folding stability dG unfold [1] [kcal/mol] | folding stability dG unfold [2] [kcal/mol] | folding stability dG unfold [3] [kcal/mol]
SAGGSAGGSAGSMSVTLSTTVEVTVEPLPDYTIVTVTTTTTFPDGSTTTTVTTTPVPPDLGSAGGSAGGSAG [r3_330_JUSTAS] | 1.68 ± 0.22 | 0.957 ± 0.24 | 1.8 ± 0.15
SAGGSAGGSAGSMTLSTSTSTTPTSLTTTTTTTTYDPTTGTTTTTSTTTTTALPAAPPSSTASAGGSAGGSA [r18_16_JUSTAS] | 1.37 ± 0.13 | 0.0685 ± 0.064 | 1.64 ± 0.03
SAGGSAGGSAGSMTPAEEKAREVEERLRREHPEFERVFVRVKEFRPETGEVTIEVEVEPRSAGGSAGGSAGG [r11_617_JUSTAS] | -0.0464 ± 0.12 | 0.292 ± 0.061 | -0.641 ± 0.27
SAGGSAGGSAGSMTSISVDVPVPGKNVVTVTVTLPPNTTTVTITVEPLPNGELKVTVETSSAGGSAGGSAGG [r11_657_JUSTAS] | 2.78 ± 0.1 | 2.89 ± 0.07 | 2.5 ± 0.061
SAGGSAGGSAGSMTVTLTITDPRNSATTTYTVPSSNYEEFLKANPEIEKNGWTVTVDTNGSAGGSAGGSAGG [r17_176_JUSTAS] | 1.05 ± 0.13 | 1.15 ± 0.044 | 0.903 ± 0.15
SAGGSAGGSAGSPDRPRRVEPVPVVTYKDPDLGKEFTSPEEIEKTKEELEKKGLSVEVSASAGGSAGGSAGG [r17_289_JUSTAS] | 0.289 ± 0.15 | -0.209 ± 0.13 | 0.482 ± 0.1
SAGGSAGGSAGSPVVTTEKVKTEGNTTVYRVTEPALNTETLVTEDAGANPTIKTTTYNTPSAGGSAGGSAGG [r11_738_JUSTAS] | -0.747 ± 0.24 | -0.955 ± 0.21 | -0.937 ± 0.83
SAGGSAGGSAGSTVTLELEIDGVRITVKAELTPDGELRLTITEVEVLPPPPVVHPDDPEALKSAGGSAGGSA [r18_176_TrROS_Hall] | 1.33 ± 0.11 | 1.54 ± 0.049 | 1.1 ± 0.064
SAGGSAGGSAGSTVTLTVDPDTNVATLTAIIGGKPVTATLTFIPNTGKARLPDGTWIDISSAGGSAGGSAGG [r11_395_TrMRF] | 1.28 ± 0.069 | 1.43 ± 0.034 | 1.03 ± 0.051
SAGGSAGGSAGSVTVTFISLEEGERYLVLTELRFGDYGIESRSTRIEVSDEKLEELKKAFSAGGSAGGSAGG [r11_47_TrMRF] | 2 ± 0.12 | 1.52 ± 0.072 | 2.12 ± 0.036
SAGGSAGGSAGSVTVTLSSDPDKTFTVTLPGGETVTFQPTPTNQVTVTVTSPTTPVTVTVSSAGGSAGGSAG [r3_334_JUSTAS] | 1.43 ± 0.096 | 1.96 ± 0.074 | 0.636 ± 0.084
SAGGSAGGSAGSYTVTPITLKLPDGTEVDAVLTTDPAGNVTLTLTGDSPLSTLTFPASTLSAGGSAGGSAGG [r11_327_JUSTAS] | 1.18 ± 0.049 | 0.119 ± 0.026 | 1.6 ± 0.039
SAGGSAGGSAGTAEEIAKALEEAGFKVEKLPDGTLKVTVRNPETEETVEITLTLEEIEKLSAGGSAGGSAGG [r11_994_TrROS_Hall] | 2.33 ± 0.1 | 2.38 ± 0.084 | 2.22 ± 0.051
SAGGSAGGSAGTIRIKMKDGKPMEFPLKGLPKEDLDDPEFLDWIKDWARDSGMKIDDIEISAGGSAGGSAGG [r11_467_TrROS] | 0.608 ± 0.14 | -0.62 ± 0.22 | 1.09 ± 0.072
SAGGSAGGSAGTITTPTAEFTVTLDPNGTYTVTYQNTTTTVPVGAPFTLPGGEPLTVVPASAGGSAGGSAGG [r11_147_JUSTAS] | 0.601 ± 0.13 | 0.0786 ± 0.069 | 0.931 ± 0.11
SAGGSAGGSAGTMTAEEIAKALGAKVVEVYPDKVVIEIEVDGKKYRITINEDGEVTVEEVSAGGSAGGSAGG [r17_252_TrROS_Hall] | 4.02 ± 0.21 | 2.62 ± 0.11 | 4.47 ± 0.15
SAGGSAGGSAGVEINIFMPSWEQAKHRAKSIARELRERGLPPNAEIKIKIHPIDPEDMGPSAGGSAGGSAGG [r17_180_TrROS] | -0.226 ± 0.25 | -0.0827 ± 0.13 | -0.576 ± 0.15
SAGGSAGGSAGVKSVGPIIYPNGEVFGDVKAEEETLPNGKKKLKIYATFSDGSKYEFTLDSAGGSAGGSAGG [r11_810_TrMRF] | 0.325 ± 0.26 | -0.261 ± 0.34 | 0.728 ± 0.13
SAGGSAGGSAGVKVLKNPGDSLVTVVTETTVTKTTTDPEGNTTTTPVKVTTTTLLEVPLTSAGGSAGGSAGG [r17_103_JUSTAS] | 0.279 ± 0.071 | 0.205 ± 0.033 | 0.215 ± 0.056
SAGGSAGGSAGVPVVVRTVTGPEGGYVVVEFPNLKKVVLLPFTDGKPRPVVFDTDEVLKLVSAGGSAGGSAG [r3_426_TrMRF] | 0.825 ± 0.093 | 1.04 ± 0.04 | 0.722 ± 0.083
SAGGSAGGSAGVRDPDNGEPMPPGDWVIRHRDNEKPHHFLIPPNNAEEFAEDNGIEIHKVSAGGSAGGSAGG [r17_109_TrROS] | 1.32 ± 0.35 | 1.42 ± 0.23 | 1.24 ± 0.14
SAGGSAGGSAGVVLKEPKGGVPKTITEDPNHPGLYTTGSPDGTISTRPLEIKPEEEPVLLSAGGSAGGSAGG [r17_85_JUSTAS] | -0.739 ± 0.55 | -1.01 ± 0.49 | -0.542 ± 0.4
SAGGSAGGSAGVVVKKPGTDVVYEITEEPGSYKVTITDPKTGTTKEFTVSPEVSIESLLLSAGGSAGGSAGG [r11_772_JUSTAS] | 1.15 ± 0.14 | 1.22 ± 0.092 | 0.757 ± 0.13
SAGGSAGGSAGWGWISVSITFEMEHYDEDGKPKHEHPMPMTIQIPVVRVDPKNGKLEPMPSAGGSAGGSAGG [r17_413_TrROS] | 2.24 ± 0.2 | 1.83 ± 0.095 | 2.58 ± 0.065
SAGGSAGGSAGYTVSVSVETETLKYLDPETGELVEEETLVRVTITITPPPPAPPNLPENLSAGGSAGGSAGG [r17_493_TrROS_Hall] | 2.65 ± 0.23 | 2.37 ± 0.23 | 2.76 ± 0.051
SAGGSAGGSAIADEFAEKNPNFQVEVERHTFEMTQYDPDGGWRQHRMFMISITIVPPGDPLSAGGSAGGSAG [r3_358_TrROS] | 3.44 ± 0.3 | 2.91 ± 0.19 | 4.07 ± 0.2
